In paper PMC10598736, “Structural insights into Rad18 targeting by the SLF1 BRCT domains” (The Journal of Biological Chemistry, 2023):

What was measured:
[1] = molecular target: T1, full-length Rad18 S442E/S444E (2SE), strep-his-sumo-tagged (human, UniProt Q9NS91 1-495, S442E | S444E); assay: pull-down; his-strep-sumo-tagged Rad18 (50 μg) held on streptactin beads, incubated with 50 μg SLF1^tBRCT at 4 °C for 60 min; 20 mM Tris (pH 7.5), 200 mM sodium chloride, 2 mM DTT; eluted with D-desthiobiotin, SDS PAGE; conditions: both partners purified
T1 construct: Rad18, human, with the phosphomimetics S442E/S444E; also called S442E/S444E (2SE)-substituted Rad18; source: E. coli BL21 Rosetta (DE3), purified (same protocol as the wild type); not shown: Strep, N-terminal, kept; His, N-terminal, kept; SUMO, N-terminal, kept

[2] = molecular target: T2, full-length Rad18 S442E, strep-his-sumo-tagged (human, UniProt Q9NS91 1-495, S442E); assay: as above; conditions: both partners purified
T2 construct: Rad18, human, with the phosphomimetic S442E; also called S442E-substituted Rad18; source: E. coli BL21 Rosetta (DE3), purified (same protocol as the wild type); not shown: Strep, N-terminal, kept; His, N-terminal, kept; SUMO, N-terminal, kept
T2 sequence (Q9NS91 whole entry S442E): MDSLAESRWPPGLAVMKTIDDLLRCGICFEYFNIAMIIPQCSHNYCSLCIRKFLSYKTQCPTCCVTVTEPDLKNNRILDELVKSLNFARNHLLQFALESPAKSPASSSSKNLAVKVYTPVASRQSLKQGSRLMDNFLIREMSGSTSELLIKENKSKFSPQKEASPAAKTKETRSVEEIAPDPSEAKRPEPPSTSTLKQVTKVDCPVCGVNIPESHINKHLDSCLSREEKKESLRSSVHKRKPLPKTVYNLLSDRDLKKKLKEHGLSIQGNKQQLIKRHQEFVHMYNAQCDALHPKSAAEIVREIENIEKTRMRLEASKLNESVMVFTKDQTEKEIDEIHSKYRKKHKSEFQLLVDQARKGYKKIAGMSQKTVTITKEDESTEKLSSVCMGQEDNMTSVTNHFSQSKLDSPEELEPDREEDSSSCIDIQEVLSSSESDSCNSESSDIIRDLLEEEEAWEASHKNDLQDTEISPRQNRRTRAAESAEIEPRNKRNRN

T1 sequence (Q9NS91 whole entry S442E/S444E): as the sequence (Q9NS91 whole entry S442E) above, with S444E counted along it

binding result [1]: binds | binding result [2]: binds
B1: SLF1 tandem BRCT repeat (SLF1^tBRCT), residues 1-199, wild type (domain or fragment, UniProt Q9BQI6 1-199, looked up)
chain: MEDGTPKHIIQMTGFKMEEKEALVKLLLKLDCTFIKSEKYKNCTHLIAERLCKSEKFLAACAAGKWILTKDYIIHSAKSGRWLDETTYEWGYKIEKDSRYSPQMQSAPKRWREELKRTGAPGAFHRWKVVLLVRTDKRSDSLIRVLEAGKANVILPKSSPSGITHVIASNARIKAEKEKDNFKAPFYPIQYLGDFLLEK
notes: SMC5/6 localization factor 1 (SLF1), tandem BRCT repeat at the N-terminus, residues 1-199; coding region optimized for E. coli and synthesized; also called WT; SMC5/6 localization factor 1 tBRCT; source: E. coli BL21 Rosetta (DE3), purified (Ni-NTA, heparin, gel filtration)
